For this data set, the system named is Escherichia coli TOP10. Put plainly: shrunken log2 fold change of peptide-encoding DNA abundance (4.5 h post-induction vs induction); higher = less antimicrobial activity (less host growth inhibition). Particulars: time post-induction: 4.5 h; library: site-saturation at positions 5, 18, 19, 20.

The values below come from the supplement of paper PMC9112550, “Optimization of the antimicrobial peptide Bac7 by deep mutational scanning” (BMC Biology, 2022).
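Further: peptides expressed intracellularly from a pBAD plasmid library in pooled LB shake-flask culture, induced with 0.3% L-arabinose, DNA abundance read by NGS, three biological replicates, DESeq2 with apeglm shrinkage.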

On to RRIRCRPPRLPRPRPRPPEKPRP, for which the “shrunken log2 fold change” value worked out at 0.299.

Turning to RRIRVRPPRLPRPRPRPCEIPRP, the “shrunken log2 fold change” value is -0.0392.

In the case of RRIRCRPPRLPRPRPRPKENPRP, the “shrunken log2 fold change” value stood at 0.192.

Turning to RRIRVRPPRLPRPRPRPITDPRP, the “shrunken log2 fold change” value was -0.069.

On to RRIRPRPPRLPRPRPRPPPPPRP, for which the “shrunken log2 fold change” value came to 0.85.

Regarding RRIRDRPPRLPRPRPRPMFCPRP, the “shrunken log2 fold change” value was found to be 2.64.

Regarding RRIRMRPPRLPRPRPRPQEYPRP, the “shrunken log2 fold change” value is -0.0485.

RRIRDRPPRLPRPRPRPNERPRP: the “shrunken log2 fold change” value was 0.141.

Take RRIRRRPPRLPRPRPRPKQEPRP: the “shrunken log2 fold change” value is 0.0674.

In the case of RRIRVRPPRLPRPRPRPRAAPRP, the “shrunken log2 fold change” value was found to be 0.425.

RRIRTRPPRLPRPRPRPVNTPRP: the “shrunken log2 fold change” value was -0.103.

Regarding RRIRWRPPRLPRPRPRPMAMPRP, the “shrunken log2 fold change” value worked out at 0.00646.

As to RRIRWRPPRLPRPRPRPQRSPRP, the “shrunken log2 fold change” value turned out to be 0.172.

For RRIRCRPPRLPRPRPRPQDHPRP, the “shrunken log2 fold change” value was -0.226.

With RRIRRRPPRLPRPRPRPQKQPRP, the “shrunken log2 fold change” value is 0.338.

In the case of RRIRTRPPRLPRPRPRPVESPRP, the “shrunken log2 fold change” value worked out at 0.141.

Take RRIRNRPPRLPRPRPRPTDAPRP: the “shrunken log2 fold change” value was -0.15.

For RRIRIRPPRLPRPRPRPATHPRP, the “shrunken log2 fold change” value was -0.165.

As for RRIRERPPRLPRPRPRPHCDPRP, the “shrunken log2 fold change” value turned out to be 0.023.

For RRIRGRPPRLPRPRPRPDHFPRP, the “shrunken log2 fold change” value is -0.31.

RRIRLRPPRLPRPRPRPIQRPRP: the “shrunken log2 fold change” value was -0.00804.

As for RRIRIRPPRLPRPRPRPMHPPRP, the “shrunken log2 fold change” value turned out to be 0.00185.

RRIRLRPPRLPRPRPRPMHQPRP: the “shrunken log2 fold change” value amounted to 0.136.

Turning to RRIRQRPPRLPRPRPRPTHDPRP, the “shrunken log2 fold change” value worked out at 0.911.

For the sequence RRIRFRPPRLPRPRPRPPIDPRP, the “shrunken log2 fold change” value was determined as 0.113.

Consider RRIRERPPRLPRPRPRPVGRPRP, for which the “shrunken log2 fold change” value was determined as 0.233.

As for RRIRCRPPRLPRPRPRPIMLPRP, the “shrunken log2 fold change” value is -0.587.

For RRIRTRPPRLPRPRPRPMHWPRP, the “shrunken log2 fold change” value is 0.209.

Turning to RRIRERPPRLPRPRPRPEPCPRP, the “shrunken log2 fold change” value was -0.148.

For the sequence RRIRLRPPRLPRPRPRPLTEPRP, the “shrunken log2 fold change” value stood at 0.098.

Turning to RRIRERPPRLPRPRPRPELTPRP, the “shrunken log2 fold change” value amounted to 0.534.

Turning to RRIRCRPPRLPRPRPRPLTVPRP, the “shrunken log2 fold change” value was -0.483.

On to RRIRNRPPRLPRPRPRPDDHPRP, for which the “shrunken log2 fold change” value is -0.0202.

As for RRIRHRPPRLPRPRPRPIACPRP, the “shrunken log2 fold change” value stood at 0.0428.

Consider RRIRHRPPRLPRPRPRPQYGPRP, for which the “shrunken log2 fold change” value was -0.0192.

Consider RRIRIRPPRLPRPRPRPILVPRP, for which the “shrunken log2 fold change” value came to 0.0273.

Consider RRIRRRPPRLPRPRPRPYVSPRP, for which the “shrunken log2 fold change” value was -0.00885.

RRIRCRPPRLPRPRPRPTWIPRP: the “shrunken log2 fold change” value is 0.24.

For the sequence RRIRKRPPRLPRPRPRPAMMPRP, the “shrunken log2 fold change” value stood at 1.24.

Regarding RRIRERPPRLPRPRPRPVHQPRP, the “shrunken log2 fold change” value turned out to be 0.107.

Regarding RRIRERPPRLPRPRPRPHGFPRP, the “shrunken log2 fold change” value is -0.0632.

For the sequence RRIRPRPPRLPRPRPRPDRYPRP, the “shrunken log2 fold change” value is -0.0207.

For the sequence RRIRGRPPRLPRPRPRPTIRPRP, the “shrunken log2 fold change” value is 0.432.

As for RRIRTRPPRLPRPRPRPPESPRP, the “shrunken log2 fold change” value was -0.0298.

In the case of RRIRRRPPRLPRPRPRPQCSPRP, the “shrunken log2 fold change” value came out at 0.109.

In the case of RRIRGRPPRLPRPRPRPTLIPRP, the “shrunken log2 fold change” value was 0.337.

In the case of RRIRPRPPRLPRPRPRPRTFPRP, the “shrunken log2 fold change” value was 0.23.

Take RRIRIRPPRLPRPRPRPHRIPRP: the “shrunken log2 fold change” value turned out to be 0.0122.

Take RRIRFRPPRLPRPRPRPAIFPRP: the “shrunken log2 fold change” value was -0.416.

In the case of RRIRNRPPRLPRPRPRPKLVPRP, the “shrunken log2 fold change” value was 0.163.

For the sequence RRIRERPPRLPRPRPRPSQMPRP, the “shrunken log2 fold change” value amounted to 0.0681.

Regarding RRIRARPPRLPRPRPRPEWHPRP, the “shrunken log2 fold change” value came to 0.381.

In the case of RRIRTRPPRLPRPRPRPQAHPRP, the “shrunken log2 fold change” value was -0.452.

Regarding RRIRARPPRLPRPRPRPLWQPRP, the “shrunken log2 fold change” value was 0.136.

For RRIRFRPPRLPRPRPRPELEPRP, the “shrunken log2 fold change” value came to 0.537.

In the case of RRIRRRPPRLPRPRPRPKFFPRP, the “shrunken log2 fold change” value was -0.00723.

On to RRIRSRPPRLPRPRPRPVDHPRP, for which the “shrunken log2 fold change” value is -0.00391.

Regarding RRIRWRPPRLPRPRPRPDITPRP, the “shrunken log2 fold change” value was found to be 0.179.

Turning to RRIRKRPPRLPRPRPRPCIVPRP, the “shrunken log2 fold change” value is -0.286.

As to RRIRFRPPRLPRPRPRPWNRPRP, the “shrunken log2 fold change” value is -0.216.

As to RRIRYRPPRLPRPRPRPCSPPRP, the “shrunken log2 fold change” value is -0.0146.

On to RRIRDRPPRLPRPRPRPNGFPRP, for which the “shrunken log2 fold change” value was -0.0113.

As to RRIRKRPPRLPRPRPRPHLNPRP, the “shrunken log2 fold change” value was 0.14.

RRIRVRPPRLPRPRPRPESPPRP: the “shrunken log2 fold change” value came out at 0.232.

For the sequence RRIRVRPPRLPRPRPRPCTYPRP, the “shrunken log2 fold change” value was -0.0569.

Regarding RRIRVRPPRLPRPRPRPFYGPRP, the “shrunken log2 fold change” value was -0.127.

Consider RRIRRRPPRLPRPRPRPRICPRP, for which the “shrunken log2 fold change” value was 0.414.

With RRIRMRPPRLPRPRPRPSMMPRP, the “shrunken log2 fold change” value stood at 0.0163.

As for RRIRGRPPRLPRPRPRPCPKPRP, the “shrunken log2 fold change” value turned out to be 0.193.

Turning to RRIRCRPPRLPRPRPRPWKYPRP, the “shrunken log2 fold change” value is -0.0802.

On to RRIRGRPPRLPRPRPRPNFNPRP, for which the “shrunken log2 fold change” value came out at 0.0556.

RRIRVRPPRLPRPRPRPWWYPRP: the “shrunken log2 fold change” value was -0.327.

RRIRSRPPRLPRPRPRPFLGPRP: the “shrunken log2 fold change” value is -0.186.

For the sequence RRIRFRPPRLPRPRPRPAVAPRP, the “shrunken log2 fold change” value worked out at 0.196.

Turning to RRIRARPPRLPRPRPRPIKGPRP, the “shrunken log2 fold change” value came to 0.3.

RRIRARPPRLPRPRPRPRASPRP: the “shrunken log2 fold change” value was found to be 0.797.

For RRIRKRPPRLPRPRPRPKAIPRP, the “shrunken log2 fold change” value amounted to 0.0275.

RRIRTRPPRLPRPRPRPSCCPRP: the “shrunken log2 fold change” value is -0.341.

In the case of RRIRVRPPRLPRPRPRPAMTPRP, the “shrunken log2 fold change” value was 0.0589.

Take RRIRFRPPRLPRPRPRPRWRPRP: the “shrunken log2 fold change” value worked out at 0.382.

On to RRIRLRPPRLPRPRPRPFCRPRP, for which the “shrunken log2 fold change” value stood at 0.0702.

Turning to RRIRSRPPRLPRPRPRPNQAPRP, the “shrunken log2 fold change” value is -0.169.

Regarding RRIRFRPPRLPRPRPRPMVTPRP, the “shrunken log2 fold change” value is -0.138.

With RRIRPRPPRLPRPRPRPYGTPRP, the “shrunken log2 fold change” value is -0.732.

With RRIRCRPPRLPRPRPRPFNGPRP, the “shrunken log2 fold change” value is -0.148.

As for RRIRNRPPRLPRPRPRPCAAPRP, the “shrunken log2 fold change” value worked out at 0.0594.

For the sequence RRIRKRPPRLPRPRPRPVEWPRP, the “shrunken log2 fold change” value is 0.12.

As to RRIRDRPPRLPRPRPRPLECPRP, the “shrunken log2 fold change” value was determined as 0.0215.

Take RRIRRRPPRLPRPRPRPSRNPRP: the “shrunken log2 fold change” value came to 0.453.

RRIRLRPPRLPRPRPRPRDAPRP: the “shrunken log2 fold change” value came out at 0.469.

For the sequence RRIRFRPPRLPRPRPRPFLDPRP, the “shrunken log2 fold change” value was -0.169.

For the sequence RRIRVRPPRLPRPRPRPSIEPRP, the “shrunken log2 fold change” value is -0.255.

Consider RRIRPRPPRLPRPRPRPYLNPRP, for which the “shrunken log2 fold change” value was -0.765.

In the case of RRIRRRPPRLPRPRPRPHLTPRP, the “shrunken log2 fold change” value is -0.132.

Consider RRIRFRPPRLPRPRPRPERSPRP, for which the “shrunken log2 fold change” value was determined as 0.0713.

Turning to RRIRSRPPRLPRPRPRPPDLPRP, the “shrunken log2 fold change” value amounted to 0.543.

For the sequence RRIRPRPPRLPRPRPRPWTGPRP, the “shrunken log2 fold change” value is -0.125.

In the case of RRIRCRPPRLPRPRPRPKQYPRP, the “shrunken log2 fold change” value is -0.629.

Take RRIRYRPPRLPRPRPRPHMQPRP: the “shrunken log2 fold change” value is -1.07.

On to RRIRHRPPRLPRPRPRPFYDPRP, for which the “shrunken log2 fold change” value was -0.837.

As to RRIRVRPPRLPRPRPRPIHEPRP, the “shrunken log2 fold change” value came out at 0.0255.

As for RRIRTRPPRLPRPRPRPFGAPRP, the “shrunken log2 fold change” value amounted to 0.334.

For the sequence RRIRKRPPRLPRPRPRPGRRPRP, the “shrunken log2 fold change” value is 0.438.

As for RRIRPRPPRLPRPRPRPPHLPRP, the “shrunken log2 fold change” value was found to be 0.024.

As for RRIRHRPPRLPRPRPRPTPGPRP, the “shrunken log2 fold change” value is 0.327.

As to RRIRLRPPRLPRPRPRPIFGPRP, the “shrunken log2 fold change” value stood at 0.0171.

In the case of RRIRARPPRLPRPRPRPRFWPRP, the “shrunken log2 fold change” value turned out to be 0.691.

Consider RRIRARPPRLPRPRPRPKAWPRP, for which the “shrunken log2 fold change” value came to 0.146.

Turning to RRIRYRPPRLPRPRPRPIVCPRP, the “shrunken log2 fold change” value was -0.134.

Take RRIRRRPPRLPRPRPRPRYSPRP: the “shrunken log2 fold change” value is -0.49.

Regarding RRIRTRPPRLPRPRPRPTESPRP, the “shrunken log2 fold change” value is -0.0539.

For RRIRNRPPRLPRPRPRPRTMPRP, the “shrunken log2 fold change” value is 0.135.

Regarding RRIRRRPPRLPRPRPRPACFPRP, the “shrunken log2 fold change” value is 0.456.

As to RRIRYRPPRLPRPRPRPESTPRP, the “shrunken log2 fold change” value was -0.00514.

As for RRIRPRPPRLPRPRPRPSVAPRP, the “shrunken log2 fold change” value was 0.0839.

For the sequence RRIRERPPRLPRPRPRPHYQPRP, the “shrunken log2 fold change” value was -0.267.

With RRIRDRPPRLPRPRPRPVLSPRP, the “shrunken log2 fold change” value was -0.0284.

With RRIRPRPPRLPRPRPRPYPTPRP, the “shrunken log2 fold change” value is -0.11.

For the sequence RRIRQRPPRLPRPRPRPHAVPRP, the “shrunken log2 fold change” value is -0.0835.

For RRIRGRPPRLPRPRPRPWYHPRP, the “shrunken log2 fold change” value is -0.347.

With RRIRSRPPRLPRPRPRPVPVPRP, the “shrunken log2 fold change” value was found to be 0.362.

Take RRIRSRPPRLPRPRPRPAYNPRP: the “shrunken log2 fold change” value was -0.00937.

Regarding RRIRHRPPRLPRPRPRPFEIPRP, the “shrunken log2 fold change” value is -0.0931.

For the sequence RRIRWRPPRLPRPRPRPAAMPRP, the “shrunken log2 fold change” value was 0.604.

For RRIRYRPPRLPRPRPRPTHEPRP, the “shrunken log2 fold change” value came to 0.0198.
